T1: FcγRIIa H (human, UniProt P12318 34-217)
T1 construct: extracellular domain; also called FcgRIIa H type; 2aH
T1 sequence (looked up): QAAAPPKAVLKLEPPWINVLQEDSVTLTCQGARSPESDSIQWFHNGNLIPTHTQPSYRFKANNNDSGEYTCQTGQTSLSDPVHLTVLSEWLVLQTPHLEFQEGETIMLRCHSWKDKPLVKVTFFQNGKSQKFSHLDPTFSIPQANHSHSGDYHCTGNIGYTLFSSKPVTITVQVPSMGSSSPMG

T2: FcγRIIb (human, UniProt P31994 43-217)
T2 construct: extracellular domain; also called FcgRIIb; 2b
T2 sequence (looked up): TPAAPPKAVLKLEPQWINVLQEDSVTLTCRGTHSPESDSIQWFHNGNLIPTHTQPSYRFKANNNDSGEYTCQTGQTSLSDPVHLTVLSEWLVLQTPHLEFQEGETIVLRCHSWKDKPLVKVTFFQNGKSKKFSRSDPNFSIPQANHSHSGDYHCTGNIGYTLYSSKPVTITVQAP

T3: FcγRIIa H (human, UniProt P12318 34-217)
T3 construct: extracellular domain; Soluble His-tagged extracellular domain expressed in FreeStyle293 cells; also called FcγRIIa type H; FcgRIIa H; not shown: His tag attached to the C terminus
T3 sequence (looked up): T1 sequence (looked up)

T4: FcγRIIb (human, UniProt P31994 43-217)
T4 construct: extracellular domain; Soluble His-tagged extracellular domain expressed in FreeStyle293 cells; also called FcgRIIb; 2b; not shown: His tag attached to the C terminus
T4 sequence (looked up): T2 sequence (looked up)

T5: FcγRIIb extracellular domain with C-terminal His tag (human, UniProt P31994 43-217)
T5 construct: extracellular domain; also called FcgRIIb; 2b; not shown: His tag at the C terminus
T5 sequence (looked up): T2 sequence (looked up)

B1: GpH7-A5/GpH7-B3 variant E333_04F/GpL16-k0 (antibody, human IgG1, kappa)
heavy 1: not shown
heavy 2: not shown
light: DIVMTQSPLSLPVTPGEPASISCQASESLVHSNRNTYLHWYLQKPGQSPQLLIYKVSNRFSGVPDRFSGSGSGTDFTLKISRVEAEDVGVYYCSQNTHVPPTFGQGTKVEIERTVAAPSVFIFPPSDEQLKSGTASVVCLLNNFYPREAKVQWKVDNALQSGNSQESVTEQDSKDSTYSLSSTLTLSKADYEKHKVYACEVTHQGLSSPVTKSFNRGEC
notes: Heterodimerized anti-glypican-3 IgG1; substitution in only one H chain (the GpH7-B3 chain); also called He Ab
B2: GpH7-A5/GpH7-B3 variant S324_05P/GpL16-k0 (antibody, human IgG1, kappa)
heavy 1: not shown
heavy 2: not shown
light: B1 light
notes: Heterodimerized anti-glypican-3 IgG1; mutation in the GpH7-B3 H chain only; also called He Ab
B3: GpH7-A5/GpH7-B3 variant S337_04F/GpL16-k0 (antibody, human IgG1, kappa)
heavy 1: not shown
heavy 2: not shown
light: B1 light
notes: He Ab: the mutation stands only in the GpH7-B3-derived H chain; also called He Ab S337F
B4: GpH7-A5/GpH7-B3 variant E333_14T/GpL16-k0 (antibody, human IgG1, kappa)
heavy 1: not shown
heavy 2: not shown
light: B1 light
notes: as for B1
B5: GpH7-A5/GpH7-B3 variant E333_13S/GpL16-k0 (antibody, human IgG1, kappa)
heavy 1: not shown
heavy 2: not shown
light: B1 light
notes: as for B1
B6: GpH7-A5/GpH7-B3 variant I336_02A/GpL16-k0 (antibody, human IgG1, kappa)
heavy 1: not shown
heavy 2: not shown
light: B1 light
notes: He Ab: the mutation stands only in the GpH7-B3-derived H chain; also called He Ab I336A
B7: GpH7-A5/GpH7-B3 variant N325_20W/GpL16-k0 (antibody, human IgG1, kappa)
heavy 1: not shown
heavy 2: not shown
light: B1 light
notes: as for B2
B8: GpH7-A5/GpH7-B3 variant I336_10E/GpL16-k0 (antibody, human IgG1, kappa)
heavy 1: not shown
heavy 2: not shown
light: B1 light
notes: He Ab: the mutation stands only in the GpH7-B3-derived H chain; also called He Ab I336E
B9: GpH7-A5/GpH7-B3 variant I336_13S/GpL16-k0 (antibody, human IgG1, kappa)
heavy 1: not shown
heavy 2: not shown
light: B1 light
notes: He Ab: the mutation stands only in the GpH7-B3-derived H chain; also called He Ab I336S
B10: GpH7-A5/GpH7-B3 variant L328_10E/GpL16-k0 (antibody, human IgG1, kappa)
heavy 1: not shown
heavy 2: not shown
light: B1 light
notes: as for B2
B11: GpH7-A5/GpH7-B3 variant N325_14T/GpL16-k0 (antibody, human IgG1, kappa)
heavy 1: not shown
heavy 2: not shown
light: B1 light
notes: as for B2
B12: GpH7-A5/GpH7-B3 variant I336_09D/GpL16-k0 (antibody, human IgG1, kappa)
heavy 1: not shown
heavy 2: not shown
light: B1 light
notes: He Ab: the mutation stands only in the GpH7-B3-derived H chain; also called He Ab I336D
B13: GpH7-A5/GpH7-B3 variant I336_14T/GpL16-k0 (antibody, human IgG1, kappa)
heavy 1: not shown
heavy 2: not shown
light: B1 light
notes: He Ab: the mutation stands only in the GpH7-B3-derived H chain; also called He Ab I336T
B14: GpH7-A5/GpH7-B3 variant P331_15Y/GpL16-k0 (antibody, human IgG1, kappa)
heavy 1: not shown
heavy 2: not shown
light: B1 light
notes: as for B2
B15: GpH7-A5/GpH7-B3 variant N325_15Y/GpL16-k0 (antibody, human IgG1, kappa)
heavy 1: not shown
heavy 2: not shown
light: B1 light
notes: as for B2
B16: GpH7-A5/GpH7-B3 variant K334_09D/GpL16-k0 (antibody, human IgG1, kappa)
heavy 1: not shown
heavy 2: not shown
light: B1 light
notes: He Ab: the mutation stands only in the GpH7-B3-derived H chain; also called He Ab K334D
B17: GpH7-A5/GpH7-B3 variant S337_01G/GpL16-k0 (antibody, human IgG1, kappa)
heavy 1: not shown
heavy 2: not shown
light: B1 light
notes: He Ab: the mutation stands only in the GpH7-B3-derived H chain; also called He Ab S337G

How the values were obtained:
FcγRIIa H [1] = biological target: T1, FcγRIIa H; experiment: SPR (Biacore), antibody captured on antigen-peptide chip, FcγR as analyte; binding relative to GpH7-A5/GpH7-B3/GpL16-k0 = 100
FcγRIIb [2] = biological target: T2, FcγRIIb; experiment: as above
FcγRIIa H [3] = biological target: T3, FcγRIIa H; experiment: SPR (Biacore); He/Con_2aH divided by He/Con_2b (FcγRIIb) of the same antibody
Description: The heterodimerized antibodies He Abs in which one of the H chains was introduced with an alteration were assayed for their binding activities to each activating FcγR and inhibitory FcγR according to the method described in Example 4. […] The activating FcγRs in FIGS. 26, 27, 28, and 29 are FcγRIa, FcγRIIa (R), FcγRIIa (H), and FcγRIIIa, respectively.
(§1) Analysis of interaction between objective antibody and the FcγR was carried out using Biacore T100 (GE Healthcare). HBS-EP+ (GE Healthcare) was used as the running buffer, and the measurement temperature was set to 25° C. Chips produced by immobilizing the antigen peptide by the amine coupling method to a Series S Sencor Chip CM5 (GE Healthcare), or alternatively, chips produced by allowing preliminarily biotinylated antigen peptides to interact with and immobilize onto a Series S Sensor Chip SA (certified) (GE Healthcare) were used. Antibodies of interest were captured onto an antigen peptide-immobilized chip, and allowed to interact to each FcγR diluted with running buffer. To regenerate and repeatedly use the chip, the antibodies captured on the chip were washed off by reacting 10 mM glycine-HCl, pH 1.5.

FcγRIIb [4] = biological target: T4, FcγRIIb; experiment: SPR (Biacore), captured antibody, FcγR analyte; relative to GpH7-A5/GpH7-B3/GpL16-k0 = 100
Description: as §1
(§2) The FcγR-binding activity of each antibody was assessed primarily using as an indicator the FcγR-binding activity and dissociation constant for FcγR.

FcγRIIa H [5] = biological target: T3, FcγRIIa H; experiment: as above
Description: as §1, §2

[6] = biological target: T5, FcγRIIb extracellular domain with …; experiment: SPR (Biacore), antibody captured via antigen peptide, FcγR as analyte; binding relative to GpH7-A5/GpH7-B3/GpL16-k0 = 100
[7] = biological target: T6, FcγRIIIa extracellular domain with C-terminal His tag (human, UniProt P08637 17-208); experiment: as above
T6 construct: extracellular domain; also called FcgRIIIa; 3a; not shown: His tag at the C terminus
T6 sequence (P08637 17-208): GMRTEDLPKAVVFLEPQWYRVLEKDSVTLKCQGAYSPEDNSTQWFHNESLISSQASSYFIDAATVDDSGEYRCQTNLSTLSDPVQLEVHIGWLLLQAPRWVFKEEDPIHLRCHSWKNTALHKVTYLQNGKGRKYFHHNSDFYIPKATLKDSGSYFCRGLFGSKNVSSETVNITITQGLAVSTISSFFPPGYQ

Binder	He_2aH/2b (FcγRIIa H [3]) [ratio]	He/Con_2b (FcγRIIb [4])	He/Con_2aH (FcγRIIa H [5])	He/Con_2b [6]	He/Con_3a [7]	further results
B1						He/Con_2aH (FcγRIIa H [1]): 102 % of HeCon Ab; He/Con_2b (FcγRIIb [2]): 94.6 % of HeCon Ab
B2	0.59	94.7 relative (control = 100)	55.5 relative (control = 100)			
B3				97.8 relative (control = 100)	101 relative (control = 100)	
B4						He/Con_2aH (FcγRIIa H [1]): 100 % of HeCon Ab; He/Con_2b (FcγRIIb [2]): 86.1 % of HeCon Ab
B5						He/Con_2aH (FcγRIIa H [1]): 101 % of HeCon Ab; He/Con_2b (FcγRIIb [2]): 81.8 % of HeCon Ab
B6				84.9 relative (control = 100)	111 relative (control = 100)	
B7	0.28	169 relative (control = 100)	47.2 relative (control = 100)			
B8				89.8 relative (control = 100)	119 relative (control = 100)	
B9				83.7 relative (control = 100)	102 relative (control = 100)	
B10	0.32	172 relative (control = 100)	55.5 relative (control = 100)			
B11	0.68	91.6 relative (control = 100)	62.7 relative (control = 100)			
B12				92.1 relative (control = 100)	106 relative (control = 100)	
B13				89.5 relative (control = 100)	108 relative (control = 100)	
B14	0.75	114 relative (control = 100)	86 relative (control = 100)			
B15	0.41	99.5 relative (control = 100)	41.2 relative (control = 100)			
B16				94.8 relative (control = 100)	160 relative (control = 100)	
B17				92 relative (control = 100)	102 relative (control = 100)	
